From article PMC5700200 come the findings set out here.

Some results are limits rather than exact numbers.

The target in this assay is FLAG-tagged β1 adrenergic receptor (UniProt P34971). Put plainly: proximity ligation; in situ PLA (Duolink) in HEK293 cells stably expressing FLAG-tagged β1AR or β2AR; 10 μM carvedilol, isoproterenol or other βAR ligands for 5 min, with or without 10 μM propranolol for 30 min; fixed, permeabilised; rabbit anti-β1AR (or β2AR) with mouse anti-Gαi.
UniProt P34971, sequence (P34971 whole entry): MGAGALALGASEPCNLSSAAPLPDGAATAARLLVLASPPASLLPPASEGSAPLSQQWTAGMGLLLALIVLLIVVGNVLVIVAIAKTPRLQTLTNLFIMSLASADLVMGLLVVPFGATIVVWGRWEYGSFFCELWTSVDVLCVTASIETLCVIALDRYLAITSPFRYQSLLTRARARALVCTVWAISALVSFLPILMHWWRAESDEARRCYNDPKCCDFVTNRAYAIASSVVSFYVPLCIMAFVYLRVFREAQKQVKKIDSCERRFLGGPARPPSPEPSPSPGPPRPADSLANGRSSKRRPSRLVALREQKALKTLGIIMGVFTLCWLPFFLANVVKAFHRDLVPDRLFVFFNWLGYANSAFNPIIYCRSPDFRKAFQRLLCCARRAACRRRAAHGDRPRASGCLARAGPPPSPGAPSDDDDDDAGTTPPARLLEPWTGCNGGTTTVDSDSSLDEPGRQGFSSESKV

“Gαi (from UniProt P08754 1-354) (natural protein)” gave a fold increase in the PLA signal after carvedilol over unstimulated cells of more than 2 fold.
